Where two headings read alike, the source gives them in different places.
Tests used:
human proTGFβ1 C4S = target: T1, human proTGFβ1 C4S (human, UniProt P01137 30-390); experiment: method not described
T1 construct: Small latent complex without presenting molecule; the cysteine that links to presenting molecules is changed to serine; also called small latent complex proTGFβ1 C4S; latent TGFβ1

[1] = target: T2, human mature TGFβ1 growth factor (human, UniProt P01137 279-390); experiment: in vitro binding assay
T2 construct: Bought from R&D Systems; also called active (mature) TGFβ1 growth factor; free TGFβ1 growth factor

[2] = target: T3, human LTBP1-proTGFβ1 complex (human, UniProt Q14766 873-1507); experiment: MSD-SET, solution equilibrium titration
T3 construct: range 873-1507; biotinylated in Octet and MSD-SET; also called hLTBP1-proTGFβ1; hLTBP1
T3 sequence (Q14766 873-1507 limits assumed, chain 1 of 2): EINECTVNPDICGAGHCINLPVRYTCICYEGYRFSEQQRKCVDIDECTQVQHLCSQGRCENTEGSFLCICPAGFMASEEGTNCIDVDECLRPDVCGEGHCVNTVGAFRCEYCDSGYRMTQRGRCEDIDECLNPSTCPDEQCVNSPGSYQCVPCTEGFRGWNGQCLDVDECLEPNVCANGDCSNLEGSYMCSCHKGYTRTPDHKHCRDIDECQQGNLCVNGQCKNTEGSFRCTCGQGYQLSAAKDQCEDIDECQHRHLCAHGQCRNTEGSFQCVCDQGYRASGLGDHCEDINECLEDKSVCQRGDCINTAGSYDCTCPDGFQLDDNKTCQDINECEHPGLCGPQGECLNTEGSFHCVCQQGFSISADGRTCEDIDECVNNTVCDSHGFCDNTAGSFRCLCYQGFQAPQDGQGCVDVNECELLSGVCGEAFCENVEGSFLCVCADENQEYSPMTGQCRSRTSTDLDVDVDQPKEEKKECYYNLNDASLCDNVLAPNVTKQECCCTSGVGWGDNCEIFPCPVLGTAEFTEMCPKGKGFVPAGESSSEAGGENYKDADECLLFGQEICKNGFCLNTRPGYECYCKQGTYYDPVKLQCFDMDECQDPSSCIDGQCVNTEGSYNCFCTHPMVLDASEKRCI
T3 sequence (chain, as listed by the source limits assumed, chain 2 of 2): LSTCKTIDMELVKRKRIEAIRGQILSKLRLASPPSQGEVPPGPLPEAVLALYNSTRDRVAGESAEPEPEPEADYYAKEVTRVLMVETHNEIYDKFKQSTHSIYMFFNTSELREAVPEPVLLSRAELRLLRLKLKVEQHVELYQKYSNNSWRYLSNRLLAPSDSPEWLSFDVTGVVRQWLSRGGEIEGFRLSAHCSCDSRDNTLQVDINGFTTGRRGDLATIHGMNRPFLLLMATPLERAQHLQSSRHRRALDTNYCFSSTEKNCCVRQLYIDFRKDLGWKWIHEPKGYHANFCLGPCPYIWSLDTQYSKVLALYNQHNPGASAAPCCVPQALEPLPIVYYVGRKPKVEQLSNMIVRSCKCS
Protocol: (§1) MSD-SET assays were performed to measure affinities of the antibodies at equilibrium. Briefly, each test antibody was diluted 3-5 fold and samples were mixed with biotinylated antigen in a 48-well dish. The SET samples were equilibrated for 20-24 hours at room temperature. Meanwhile, a capture plate was coated with IgG (20 nM) and incubated overnight at 4° C. or 30 minutes at room temperature, followed by a blocking step with 5% BSA. After the capture plate was washed three times, SET samples were added and incubated for 150 seconds. The plate was washed once to remove unbound complexes. 250 ng/ml SA-Sulfotag was added then washed 3 times. 2× Read Buffer was added, and signals from the labeled bound complexes were read with the use of QuickPlex™ SQ 120 instrument.
(§2) As an example, MSD standard plates (MSD) were coated with a 20 nM solution of monoclonal antibody in PBS for 30 min at room temperature or overnight at 4° C. […] After 20-24 hours of equilibration, the antibody-coated plate was blocked with Blocking Buffer A (MSD) for 30 minutes at room temperature and washed with wash buffer (PBS, 0.1% BSA, 0.05% Tween-20) before adding the equilibrated antibody-antigen complexes to the plate for exactly 2.5 minutes. The plate was washed again with wash buffer before adding 250 ng/ml SULFO-TAG-labeled streptavidin secondary reagent (MSD) in PBS with 0.1% BSA. After washing with wash buffer, plates were read in MSD read buffer (MSD) using the MESO QuickPlex SQ 120 (MSD). The binding data were processed by nonlinear curve fitting in Prism 7 software (Graphpad) to calculate equilibrium binding KD values.

[3] = target: T4, human LTBP3-proTGFβ1 complex (human, UniProt Q9NS15 866-1039); experiment: MSD-SET, solution equilibrium titration
T4 construct: range 866-1039; also called hLTBP3-proTGFβ1; hLTBP3
Protocol: as §1, §2

[4] = target: T5, human GARP-proTGFβ1 complex (human, UniProt Q14392 20-627; P01137 30-390); experiment: MSD-SET, solution equilibrium titration
T5 construct: also called hGARP-proTGFβ1; hGARP
T5 sequence (Q14392 20-627, chain 1 of 2): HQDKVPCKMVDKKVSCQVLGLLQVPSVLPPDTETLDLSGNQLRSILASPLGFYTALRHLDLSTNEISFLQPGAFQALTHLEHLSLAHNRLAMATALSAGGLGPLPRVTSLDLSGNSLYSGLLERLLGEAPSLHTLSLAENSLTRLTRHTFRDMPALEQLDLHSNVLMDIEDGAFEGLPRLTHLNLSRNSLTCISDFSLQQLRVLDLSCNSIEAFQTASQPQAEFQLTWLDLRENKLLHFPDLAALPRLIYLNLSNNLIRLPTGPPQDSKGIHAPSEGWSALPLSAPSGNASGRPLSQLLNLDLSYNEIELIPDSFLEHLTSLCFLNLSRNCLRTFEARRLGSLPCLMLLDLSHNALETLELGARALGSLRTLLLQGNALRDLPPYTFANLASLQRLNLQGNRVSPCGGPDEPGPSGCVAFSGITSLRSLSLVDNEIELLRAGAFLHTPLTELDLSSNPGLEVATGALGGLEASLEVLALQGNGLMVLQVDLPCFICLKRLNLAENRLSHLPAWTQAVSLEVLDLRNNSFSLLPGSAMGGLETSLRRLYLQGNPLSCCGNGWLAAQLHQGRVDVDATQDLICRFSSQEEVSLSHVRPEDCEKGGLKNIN
T5 sequence (P01137 30-390, chain 2 of 2): as the sequence (chain, as listed by the source limits assumed, chain 2 of 2) above
Protocol: as §1, §2

[5] = target: T6, human LRRC33-proTGFβ1 complex (human, UniProt Q86YC3 19-650; P01137 30-390); experiment: MSD-SET, solution equilibrium titration
T6 construct: also called hLRRC33-proTGFβ1; hLRRC33
T6 sequence (Q86YC3 other isoform, or with tags, fused parts or gaps limits assumed, chain 1 of 2): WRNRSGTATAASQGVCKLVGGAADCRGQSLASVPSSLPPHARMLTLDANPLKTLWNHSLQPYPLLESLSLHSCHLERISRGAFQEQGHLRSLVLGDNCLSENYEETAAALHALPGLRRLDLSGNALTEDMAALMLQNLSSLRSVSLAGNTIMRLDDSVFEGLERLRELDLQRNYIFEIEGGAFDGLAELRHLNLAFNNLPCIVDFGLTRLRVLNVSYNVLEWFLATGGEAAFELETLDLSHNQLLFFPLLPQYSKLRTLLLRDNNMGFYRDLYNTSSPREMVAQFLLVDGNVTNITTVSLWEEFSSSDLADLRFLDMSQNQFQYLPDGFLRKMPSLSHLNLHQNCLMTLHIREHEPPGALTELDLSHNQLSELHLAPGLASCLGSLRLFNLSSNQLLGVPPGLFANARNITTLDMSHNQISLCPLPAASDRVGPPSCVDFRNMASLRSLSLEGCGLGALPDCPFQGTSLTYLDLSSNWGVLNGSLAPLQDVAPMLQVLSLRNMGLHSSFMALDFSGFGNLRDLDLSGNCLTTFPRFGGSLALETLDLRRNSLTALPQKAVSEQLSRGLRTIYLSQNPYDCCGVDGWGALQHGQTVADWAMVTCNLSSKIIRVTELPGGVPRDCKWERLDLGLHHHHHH
T6 sequence (P01137 30-390 limits assumed, chain 2 of 2): as the sequence (chain, as listed by the source limits assumed, chain 2 of 2) above
Protocol: as §1, §2

[6] = target: T7, murine LTBP1-proTGFβ1 complex (mouse, UniProt Q8CG19 339-1712; P04202 30-390, limits assumed); experiment: MSD-SET, solution equilibrium titration
T7 construct: also called mLTBP1-proTGFβ1
Protocol: as §1, §2

[7] = target: T8, murine LTBP3-proTGFβ1 complex (mouse, UniProt Q61810 41-1245; P04202 30-390, limits assumed); experiment: MSD-SET, solution equilibrium titration
T8 construct: also called mLTBP3-proTGFβ1
T8 sequence (Q61810 other isoform, or with tags, fused parts or gaps limits assumed, chain 1 of 2): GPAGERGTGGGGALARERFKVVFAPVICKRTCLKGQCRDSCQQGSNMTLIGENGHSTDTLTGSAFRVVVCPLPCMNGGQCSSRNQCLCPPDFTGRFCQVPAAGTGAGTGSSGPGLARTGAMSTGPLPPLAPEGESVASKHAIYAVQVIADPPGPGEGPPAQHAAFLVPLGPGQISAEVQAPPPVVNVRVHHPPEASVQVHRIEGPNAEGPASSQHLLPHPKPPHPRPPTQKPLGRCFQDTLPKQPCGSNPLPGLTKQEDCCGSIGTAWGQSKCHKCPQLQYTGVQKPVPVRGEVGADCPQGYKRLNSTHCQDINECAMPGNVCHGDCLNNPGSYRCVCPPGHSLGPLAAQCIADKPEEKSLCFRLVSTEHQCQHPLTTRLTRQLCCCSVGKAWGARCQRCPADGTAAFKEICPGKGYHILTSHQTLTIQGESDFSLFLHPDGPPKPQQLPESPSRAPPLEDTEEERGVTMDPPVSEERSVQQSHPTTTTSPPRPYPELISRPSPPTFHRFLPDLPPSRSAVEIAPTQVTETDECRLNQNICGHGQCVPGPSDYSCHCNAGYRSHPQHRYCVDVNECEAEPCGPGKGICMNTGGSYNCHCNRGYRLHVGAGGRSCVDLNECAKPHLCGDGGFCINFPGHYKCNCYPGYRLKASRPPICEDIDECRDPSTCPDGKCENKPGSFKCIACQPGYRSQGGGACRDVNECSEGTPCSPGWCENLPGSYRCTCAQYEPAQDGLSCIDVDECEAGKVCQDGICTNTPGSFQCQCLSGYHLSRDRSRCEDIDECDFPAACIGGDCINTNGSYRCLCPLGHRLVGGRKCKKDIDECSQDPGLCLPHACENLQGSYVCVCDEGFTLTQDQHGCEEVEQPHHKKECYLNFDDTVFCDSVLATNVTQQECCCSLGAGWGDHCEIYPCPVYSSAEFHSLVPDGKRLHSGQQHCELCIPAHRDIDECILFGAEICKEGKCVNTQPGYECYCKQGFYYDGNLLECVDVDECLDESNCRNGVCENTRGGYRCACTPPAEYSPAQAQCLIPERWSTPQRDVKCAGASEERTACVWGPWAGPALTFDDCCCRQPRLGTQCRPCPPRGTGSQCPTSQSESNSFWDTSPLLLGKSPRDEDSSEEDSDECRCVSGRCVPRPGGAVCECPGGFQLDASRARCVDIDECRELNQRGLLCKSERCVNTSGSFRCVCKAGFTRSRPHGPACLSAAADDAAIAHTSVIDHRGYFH
T8 sequence (P04202 30-390 limits assumed, chain 2 of 2): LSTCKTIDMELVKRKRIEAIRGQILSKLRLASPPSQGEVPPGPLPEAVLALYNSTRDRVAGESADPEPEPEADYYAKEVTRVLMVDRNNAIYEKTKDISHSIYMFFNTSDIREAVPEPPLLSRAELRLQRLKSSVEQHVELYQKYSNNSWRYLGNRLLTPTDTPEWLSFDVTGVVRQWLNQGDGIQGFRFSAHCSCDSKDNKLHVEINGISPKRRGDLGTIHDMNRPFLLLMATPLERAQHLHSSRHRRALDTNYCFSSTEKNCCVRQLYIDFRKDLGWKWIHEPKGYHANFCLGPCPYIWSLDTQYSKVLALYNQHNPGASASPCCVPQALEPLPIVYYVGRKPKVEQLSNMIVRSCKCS
Protocol: as §1, §2

[8] = target: T9, murine GARP-proTGFβ1 complex (mouse, UniProt G3XA59 18-628; P04202 30-390); experiment: MSD-SET, solution equilibrium titration
T9 construct: Soluble murine complex; also called mGARP-proTGFβ1
Protocol: as §1, §2

[9] = target: T10, murine LRRC33-proTGFβ1 complex (mouse, UniProt Q8BMT4 20-651, limits assumed); experiment: MSD-SET, solution equilibrium titration
T10 construct: also called mLRRC33-proTGFβ1
Protocol: as §1, §2

[10] = target: T3, human LTBP1-proTGFβ1 complex; experiment: MSD-SET, solution equilibrium titration; remark: listed apart in the source
Protocol: as §1, §2

[11] = target: T5, human GARP-proTGFβ1 complex; experiment: MSD-SET, solution equilibrium titration; remark: listed apart in the source
Protocol: as §1, §2

[12] = target: T6, human LRRC33-proTGFβ1 complex; experiment: MSD-SET, solution equilibrium titration; remark: listed apart in the source
Protocol: as §1, §2

[13] = target: T7, murine LTBP1-proTGFβ1 complex; experiment: MSD-SET, solution equilibrium titration; remark: listed apart in the source
Protocol: as §1, §2

[14] = target: T9, murine GARP-proTGFβ1 complex; experiment: MSD-SET, solution equilibrium titration; remark: listed apart in the source
Protocol: as §1, §2

[15] = target: T10, murine LRRC33-proTGFβ1 complex; experiment: MSD-SET, solution equilibrium titration; remark: listed apart in the source
Protocol: as §1, §2

[16] = target: rat LTBP1-proTGFβ1 complex (rat, UniProt Q00918 339-1712; P17246 30-390); experiment: MSD-SET, solution equilibrium titration
Protocol: as §1, §2

[17] = target: rat LRRC33-proTGFβ1 complex (rat, UniProt Q5BK65 25-650; P17246 30-390); experiment: MSD-SET, solution equilibrium titration
Protocol: as §1, §2

[18] = target: T11, cynomolgus LRRC33-proTGFβ1 complex (cynomolgus monkey, UniProt A0A7N9CII2 32-663); experiment: MSD-SET, solution equilibrium titration
T11 construct: also called Cyno LRRC33-proTGFβ1
Protocol: as §1, §2

[19] = target: T8, murine LTBP3-proTGFβ1 complex; experiment: MSD-SET, solution equilibrium titration; MSD-SET, Table 21, mouse complex
[20] = target: T4, human LTBP3-proTGFβ1 complex; experiment: MSD-SET solution equilibrium titration; Ab6 titrated against biotinylated hLTBP3-proTGFβ1, readout % free antigen
Protocol: as §1
as §2, with “The plate was washed again with wash buffer before adding 250 ng/ml SULFO-TAG-labeled streptavidin secondary reagent (MSD) in PBS with 0.1% BSA.” left out, “The binding data were processed by nonlinear curve fitting in Prism 7 software (Graphpad) to calculate equilibrium binding KD values.” left out

T1 sequence (P01137 other isoform, or with tags, fused parts or gaps): as the sequence (chain, as listed by the source limits assumed, chain 2 of 2) above, with C4S counted along it

B1: Ab6 (antibody, human IgG4 S228P, kappa, V domains shown)
VH: EVQLVESGGGLVQPGGSLRLSCTASGFTFSSFSMDWVRQAPGKGLEWVSYISPSADTIYYADSVKGRFTISRDNAKNTLYLQMNSLRAEDTAVYYCARGVLDYGDMLMPWGQGTLVTVSS
VL: DIQMTQSPSSLSASVGDRVTITCQASQDITNYLNWYQQKPGKAPKLLIYDASNLETGVPSRFSGSGSGTDFTFTISSLQPEDIATYYCQQADNHPPWTFGGGTKVEIKR
- binding result (human proTGFβ1 C4S): binds
- binding result [1]: no binding
- Kd [2]: 0.018 nM
- Kd [3]: 0.029 nM
- Kd [4]: 0.027 nM
- Kd [5]: 0.063 nM
- Kd [6]: 0.024 nM
- Kd [7]: 0.028 nM
- Kd [8]: 0.021 nM
- Kd [9]: 0.048 nM
- Kd [10]: 0.018 nM
- Kd [11]: 0.027 nM
- Kd [12]: 0.063 nM
- Kd [13]: 0.024 nM
- Kd [14]: 0.021 nM
- Kd [15]: 0.048 nM
- Kd [16]: 0.035 nM
- Kd [17]: 0.086 nM
- Kd [18]: 0.093 nM
- Kd [19]: 0.022 nM
- IC50 (read off the curve) [20]: ~0.03 nM
